# Measured values from article PMC11480844 (2024).
# Positions count from the first letter of the chain named.
# B1: H2-Kb / Ed21 (parent complex)
# chain 1: AQSVTQPDARVTVSEGASLQLRCKYSYFGTPYLFWYVQYPRQGLQLLLKYYPGDPVVQGVNGFEAEFSKSNSSFHLRKASVHWSDWAVYFCAVSMSGGYKVVFGSGTRLLVSP
# chain 2: DSGVVQSPRHIIKEKGGRSVLTCIPISGHSNVVWYQQTLGKELKFLIQHYEKVERDKGFLPSRFSVQQFDDYHSEMNMSALELEDSAMYFCASSPRQTDYTFGSGTRLLVI
# chain 3: not shown
# chain 4: IQKTPQIQVYSRHPPENGKPNILNCYVTQFHPPHIEIQMLKNGKKIPKVEMSDMSFSKDWSFYILAHTEFTPTETDTYACRVKHDSMAEPKTVYWDRDM
# chain 5: SIINFEKL
# B2: H2-Kb / Ed28 (parent complex)
# chain 1: AQSVTQPDARVTVSEGASLQLRCKYSYFGTPYLFWYVQYPRQGLQLLLKYYPGDPVVQGVNGFEAEFSKSNSSFHLRKASVHWSDWAVYFCAVSPGSGGKLTLGAGTRLQVNL
# chain 2: B1 chain 2 with Q97A, T98S
# chain 3: not shown
# chain 4: B1 chain 4
# chain 5: SIINFEKL
# Variants of: B1
# Test: % of reporter cells activated (NFAT-GFP), raw
# Also: test concentration or dose not given here.
row,ratio to parent,Variant
1,0.918,chain 5 E6Q
2,0.0269,chain 5 E6V
3,0.947,chain 5 F5N
4,1.04,chain 5 I2V

# More lines, now with the values behind:
row,Variant,ratio to parent
1,chain 5 K7N,0.706
2,chain 5 S1T,0.927
3,chain 5 L8G,0.966
4,chain 5 F5I,0.891
5,chain 5 F5S,0.886
6,chain 5 N4L,0.618

# Variants of: B2
# Test: % of reporter cells activated (NFAT-GFP), raw
row,ratio to parent,Variant
1,0.22,chain 5 E6N
2,0.0718,chain 5 E6R
3,0.00894,chain 5 E6W
4,0.0885,chain 5 E6Y
5,0.651,chain 5 E6G
6,0.0742,chain 5 E6P
7,0.702,chain 5 E6K
8,0.56,chain 5 F5K
9,0.773,chain 5 F5W
10,1,chain 5 F5H
11,0.772,chain 5 F5V
12,0.774,chain 5 F5R
13,0.687,chain 5 F5D
14,0.92,chain 5 I2R
15,0.981,chain 5 I2E
16,1.15,chain 5 I2C
17,0.659,chain 5 I2H
18,1.01,chain 5 I2F
19,0.837,chain 5 I2K
20,0.58,chain 5 I2Y
21,0.98,chain 5 I3L
22,1.24,chain 5 I3H
23,0.369,chain 5 I3Y

row,ratio to parent,Variant
1,0.592,chain 5 I3W
2,1.08,chain 5 I3V
3,0.0195,chain 5 N4Y
4,0.0544,chain 5 N4E
5,0.0123,chain 5 N4F
6,0.00909,chain 5 N4V
7,0.00709,chain 5 N4M
8,0.493,chain 5 L8E
9,0.915,chain 5 L8R
10,0.947,chain 5 L8G
11,0.197,chain 5 K7I
12,0.104,chain 5 K7M
13,0.407,chain 5 K7W
14,0.159,chain 5 K7V
15,0.141,chain 5 K7Q
16,0.244,chain 5 K7L
17,0.0363,chain 5 K7C
18,0.332,chain 5 S1L
19,0.723,chain 5 S1W
20,0.59,chain 5 S1C
21,0.321,chain 5 S1R
22,1.13,chain 5 S1T
23,0.445,chain 5 S1K

# More lines, now with the values behind:
row,Variant,ratio to parent
1,chain 5 E6I,0.0144
2,chain 5 E6T,0.0253
3,chain 5 E6F,0.013
4,chain 5 E6A,0.238
5,chain 5 E6H,0.116
6,chain 5 E6Q,0.315
7,chain 5 E6L,0.014
8,chain 5 E6D,0.533
9,chain 5 E6S,0.039
10,chain 5 E6V,0.0103
11,chain 5 E6C,0.0175
12,chain 5 F5N,0.742
13,chain 5 F5P,0.74
14,chain 5 F5L,0.844
15,chain 5 F5A,0.81
16,chain 5 F5C,1.13
17,chain 5 F5G,0.564
18,chain 5 F5T,1.17
19,chain 5 F5E,0.483
20,chain 5 F5Y,0.875
21,chain 5 F5M,0.741
22,chain 5 I2P,1.2
23,chain 5 I2M,0.857
24,chain 5 I2L,1.14

row,Variant,ratio to parent
1,chain 5 I2N,0.898
2,chain 5 I2Q,0.574
3,chain 5 I2W,0.702
4,chain 5 I2G,1.06
5,chain 5 I2S,1.14
6,chain 5 I2A,1.25
7,chain 5 I2V,1.3
8,chain 5 I2D,1.3
9,chain 5 I3M,0.959
10,chain 5 I3N,1.16
11,chain 5 I3G,0.836
12,chain 5 I3F,0.6
13,chain 5 I3D,0.727
14,chain 5 I3C,0.894
15,chain 5 I3Q,0.449
16,chain 5 I3S,1.14
17,chain 5 I3A,0.632
18,chain 5 I3R,0.134
19,chain 5 I3T,1.31
20,chain 5 I3K,0.651
21,chain 5 I3P,0.898
22,chain 5 I3E,0.656
23,chain 5 N4T,0.0349
24,chain 5 N4D,0.035

row,Variant,ratio to parent
1,chain 5 N4C,0.0197
2,chain 5 N4I,0.167
3,chain 5 N4L,0.329
4,chain 5 N4Q,0.00495
5,chain 5 N4K,0.504
6,chain 5 N4P,0.00481
7,chain 5 N4A,0.0295
8,chain 5 N4H,0.0455
9,chain 5 N4R,0.227
10,chain 5 L8W,0.685
11,chain 5 L8S,0.563
12,chain 5 L8H,0.85
13,chain 5 L8F,1.02
14,chain 5 L8A,0.709
15,chain 5 L8P,0.83
16,chain 5 L8I,1.02
17,chain 5 L8K,0.584
18,chain 5 L8V,0.761
19,chain 5 L8T,0.832
20,chain 5 L8D,0.475
21,chain 5 L8C,0.616
22,chain 5 L8Q,0.602
23,chain 5 L8M,0.862
24,chain 5 K7T,0.115

row,Variant,ratio to parent
1,chain 5 K7S,0.406
2,chain 5 K7G,0.185
3,chain 5 K7D,0.00937
4,chain 5 K7F,0.0786
5,chain 5 K7P,0.145
6,chain 5 K7N,0.242
7,chain 5 K7A,0.162
8,chain 5 K7Y,0.48
9,chain 5 K7R,0.496
10,chain 5 K7H,0.81
11,chain 5 S1Y,0.825
12,chain 5 S1A,1.05
13,chain 5 S1H,1
14,chain 5 S1Q,0.81
15,chain 5 S1P,0.693
16,chain 5 S1F,0.965
17,chain 5 S1N,0.293
18,chain 5 S1I,0.433
19,chain 5 S1E,0.798
20,chain 5 S1G,0.898
21,chain 5 S1V,0.67
22,chain 5 S1D,0.536
